According to publication PMC2944808 (2010):

Target: T1, CHRD_VWC2 (Mus musculus (Mouse), UniProt Q9Z0E2)
T1 chain: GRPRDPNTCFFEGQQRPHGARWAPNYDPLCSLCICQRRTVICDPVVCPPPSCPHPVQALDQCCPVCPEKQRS
Test: SPR, chordin VWC immobilised

Kd: 145 nM
B1: CV2 (protein)
chain: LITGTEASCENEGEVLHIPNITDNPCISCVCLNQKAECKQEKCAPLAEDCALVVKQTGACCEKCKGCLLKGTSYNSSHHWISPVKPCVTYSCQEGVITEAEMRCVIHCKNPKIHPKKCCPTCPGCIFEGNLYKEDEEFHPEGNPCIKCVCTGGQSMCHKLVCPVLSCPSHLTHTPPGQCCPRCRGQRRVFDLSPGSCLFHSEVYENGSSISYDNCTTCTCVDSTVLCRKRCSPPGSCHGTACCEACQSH
